Test results taken from PMC8559680, “Dynamics in Fip1 regulate eukaryotic mRNA 3′ end processing” (Genes & Development, 2021).

B1: Fip1_(226) (Fip1 residues 1–226), purified from E. coli (domain or fragment, yeast, UniProt P45976 1-226, looked up)
chain: MSSSEDEDDKFLYGSDSELALPSSKRSRDDEADAGASSNPDIVKRQKFDSPVEETPATARDDRSDEDIYSDSSDDDSDSDLEVIISLGPDPTRLDAKLLDSYSTAATSSSKDVISVATDVSNTITKTSDERLITEGEANQGVTATTVKATESDGNVPKAMTGSIDLDKEGIFDSVGITTIDPEVLKEKPWRQPGANLSDYFNYGFNEFTWMEYLHRQEKLQQDYNP
notes: Isotopically labelled (15N, 13C, 2H) where it is the observed species in NMR; cloned in pET28a+; also called Fip226; source: E. coli BL21 Star, purified (Ni-NTA, TEV cleavage, Superdex 75); not shown: His tag, N-terminal, cleaved

Legend:
[1] = target: B1; experiment: NMR titration; 15N-labelled Yth1 construct with unlabelled Fip1_(226), equimolar, 75 µM; chemical shift perturbations and line broadening; 700 MHz, 298 K, 50 mM HEPES (pH 7.4), 150 mM NaCl; details: both partners purified
[2] = target: T1, CPFΔFip1 (recombinant CPF lacking Fip1; Pap1 also absent) (yeast, UniProt Q06632 1-1357; P42841 1-465; Q06102 1-208; Q12102 1-859; Q06224 1-779; P35728 …); experiment: mass photometry; Refeyn One iSCAT; samples diluted to 100 nM in 50 mM HEPES (pH 7.4), 150 mM NaCl; details: both partners purified
T1 construct: Cft1, yeast; as m20; Pfs2, yeast, untagged; as m19; Yth1, yeast, untagged; as m12; Cft2, yeast; as m21; Ysh1, yeast; as m22; Mpe1, yeast; as m23; Pta1, yeast; as m24; Ssu72, yeast; as m25; Pti1, yeast; as m26; Glc7, yeast; as m27; as m28; Swd2, yeast; as m29; Twelve subunits: Fip1 was omitted from the CPFcore construct and Pap1, though co-expressed, was absent from the purified complex; source: …

[3] = target: Yth1ZF4 (Yth1 zinc finger 4) (yeast) (UniProt Q06102); experiment: ITC; MicroCal iTC200, 25°C, 50 mM HEPES (pH 7.4), 150 mM NaCl; single class-binding site model

binding result [1]	binding result [2]	Kd [3]	Binder
binds			Yth1_(ZF45C) (Yth1 residues 118–208) (domain or fragment, yeast, UniProt Q06102 118-208, looked up, Yth1, yeast, zinc fingers 4 and 5 and the rest of the C-terminal region, residues 118–208; 15N- or 13C,15N-labelled where it is the observed species in NMR; cloned in pGEX6P-2; also called entire C-terminal half of Yth1; source: E. coli BL21 Star, purified (GST resin, 3C cleavage, Superdex 75); not shown: GST, N-terminal, cleaved) ASKIPKCENYEMGFCPLGSSCPRRHIKKVFCQRYMTGFCPLGKDECDMEHPQFIIPDEGSKLRIKRDDEINTRKMDEEKERRLNAIINGEV
	binds	240 nM	B1
